Experimental data published in patent US11419948B2, “Functionalized microgels with fibrin binding elements” (Georgia Tech Research Corporation, priority 2013, dated 2022).

B1: PLPs: ultra-low crosslinked pNIPAm-AAc microgels conjugated to fibrin-specific sdFv H6 (conjugate)
VH: QVQLLESGGGLVQPGGSLRLSCAASGDRFTHNDMGWVRQAPGKGLEWVSTIPTTDGSTYYADSVKGRFTISRDNSKSTLYLQMNSLRAEDTAVYYCATGYMWKAPAYVKYWGQGTLVTVSSAAAEQKLISEEDLNSAAHYTDIG
B2: H6: fibrin-specific human sdFv clone from phage biopanning, SEQ ID NO: 1 (protein)
VHH: B1 VH

Tests used:
[1] = tested on: platelet poor plasma (PPP); experiment: Dynamic in vitro clotting in endothelialized microfluidic device; assay type: biochemical, human; conditions: platelet-poor plasma under flow
Method: To characterize the effect of microgels on clotting in vitro, a endothelialized microfluidics device that accurately recapitulates the cellular, physical, and hemodynamic environment of microcirculation, was used as previously described, Jackson, et al., Journal of Thrombosis and Haemostasis: JTH 7 Suppl 1:17-20 (2009). For these experiments, clotting of platelet poor plasma (PPP) was analyzed in the absence or presence of fibrin-binding microgels of varying degrees of crosslinking in real time using confocal microscopy. As a control, clotting of platelet rich plasma (PRP) or PPP in the presence of non-fibrin binding microgels were also investigated. Microgels or buffer were added to PPP immediately prior to injection into the microfluidics device. To visualize clotting, PPP was spiked with Alexa Fluor-488 labeled fibrinogen. Endothelial cells were stained with Cell Mask Deep Red (Invitrogen) and microgels were labeled with Alexa Fluor 546. For experiments utilizing PRP, platelets were stained with Cell Mask Red (Invitrogen). Samples were flowed at 1.1 μL/min and imaged continuously for 20 min. Clotting overtime was characterized through imaging processing with Image J (NIH). Each microfluidic device is comprised of three regions of different flow rates, comprising four endothelialized channels.

fibrinogen = molecular target: T1, fibrinogen (Homo sapiens, UniProt P02671+P02675+P02679); experiment: SPR on immobilized fibrinogen surface; assay type: binding
T1 sequence (P02671 20-629 limits assumed): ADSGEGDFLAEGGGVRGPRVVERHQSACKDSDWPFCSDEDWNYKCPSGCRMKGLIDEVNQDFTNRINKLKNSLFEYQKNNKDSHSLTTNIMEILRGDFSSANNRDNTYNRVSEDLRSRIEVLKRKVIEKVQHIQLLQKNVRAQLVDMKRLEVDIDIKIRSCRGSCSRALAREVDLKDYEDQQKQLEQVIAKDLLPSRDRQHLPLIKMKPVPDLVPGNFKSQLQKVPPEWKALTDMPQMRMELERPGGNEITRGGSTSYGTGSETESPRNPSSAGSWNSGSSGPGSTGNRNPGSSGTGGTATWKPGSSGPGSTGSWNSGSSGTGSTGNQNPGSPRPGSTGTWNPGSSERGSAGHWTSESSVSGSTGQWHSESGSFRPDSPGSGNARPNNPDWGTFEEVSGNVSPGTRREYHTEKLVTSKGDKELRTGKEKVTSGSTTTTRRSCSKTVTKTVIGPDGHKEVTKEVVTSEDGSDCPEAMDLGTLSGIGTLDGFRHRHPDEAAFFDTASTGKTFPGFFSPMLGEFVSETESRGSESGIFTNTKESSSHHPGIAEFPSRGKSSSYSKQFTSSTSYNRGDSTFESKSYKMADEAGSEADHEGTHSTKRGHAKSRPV
T1 sequence (P02675 31-491): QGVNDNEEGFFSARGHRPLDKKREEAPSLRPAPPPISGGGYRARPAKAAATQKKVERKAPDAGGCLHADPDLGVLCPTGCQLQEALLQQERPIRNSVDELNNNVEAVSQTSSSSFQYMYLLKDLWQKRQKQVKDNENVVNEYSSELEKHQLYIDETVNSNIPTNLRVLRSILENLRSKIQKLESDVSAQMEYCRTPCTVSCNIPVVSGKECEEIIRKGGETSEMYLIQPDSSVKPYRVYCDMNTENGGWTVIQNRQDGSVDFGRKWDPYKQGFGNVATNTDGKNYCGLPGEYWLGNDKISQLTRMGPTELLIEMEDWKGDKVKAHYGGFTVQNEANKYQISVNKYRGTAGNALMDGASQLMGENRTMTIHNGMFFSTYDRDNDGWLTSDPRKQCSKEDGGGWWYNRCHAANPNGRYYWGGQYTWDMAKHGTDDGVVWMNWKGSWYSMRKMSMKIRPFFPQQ
T1 sequence (P02679 27-453): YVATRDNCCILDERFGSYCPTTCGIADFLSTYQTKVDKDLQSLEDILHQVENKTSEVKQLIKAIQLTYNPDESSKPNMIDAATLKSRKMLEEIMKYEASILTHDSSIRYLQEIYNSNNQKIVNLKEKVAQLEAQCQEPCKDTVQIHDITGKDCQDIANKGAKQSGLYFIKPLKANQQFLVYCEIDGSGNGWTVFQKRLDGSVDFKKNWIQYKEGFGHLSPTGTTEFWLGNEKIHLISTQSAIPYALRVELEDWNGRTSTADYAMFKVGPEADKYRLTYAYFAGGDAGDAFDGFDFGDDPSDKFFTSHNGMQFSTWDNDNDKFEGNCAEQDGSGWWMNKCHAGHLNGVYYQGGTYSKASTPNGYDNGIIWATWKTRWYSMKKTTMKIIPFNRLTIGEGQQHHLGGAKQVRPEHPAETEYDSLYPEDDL
Method: Based on previous SPR protocols developed in the lab^4, a thin fibrin layer was immobilized on the surface of a gold SPR chip via layer-by-layer deposition of fibrinogen-thrombin-fibrinogen^3. SdFvs were flowed across the fibrin surface and the binding interactions were evaluated and recorded. Additionally, antibody fragment binding interactions with a surface of immobilized fibrinogen was used to investigate the specificity to fibrin. All SPR data was examined and analyzed with Scrubber 2 and Clamp XP (Center for Biomolecular Interactions Analysis, University of Utah). Data simulation curves were generated based on a Langmuir 1:1 binding model assuming only a single ligand-analyte interaction.

| Molecule | fibrin clot formation in response to thrombin [1] | binding to fibrinogen (fibrinogen) |
| --- | --- | --- |
| B1 | successfully rescued fibrin clot formation | – |
| B2 | – | negligible binding |
